From paper PMC6123398

Legend:
[1] = target: human FcγRIIIa-Val158, soluble ectodomain (human); test: SPR; FcγRIIIa ectodomains immobilised on Series S CM5 chips by amine coupling (Phe158 560 RU, Val158 260 RU); Biacore T200; antibody injected (Rituxan 21,870-30 nM, recombinant mAb 810-3.333 nM, threefold dilutions); blank surface and buffer subtracted; 1:1 Langmuir binding model
[2] = target: human FcγRIIIa-Phe158, soluble ectodomain (human) (UniProt P08637); test: as above
Chain of UniProt P08637 (P08637 17-208): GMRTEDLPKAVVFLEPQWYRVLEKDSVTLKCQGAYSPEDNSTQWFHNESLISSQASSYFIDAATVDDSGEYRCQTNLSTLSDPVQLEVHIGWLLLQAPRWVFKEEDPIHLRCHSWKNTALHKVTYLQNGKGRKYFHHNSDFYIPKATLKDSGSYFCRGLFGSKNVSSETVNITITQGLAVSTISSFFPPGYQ

Kd [1]: 940 nM | koff [1]: 0.043 s⁻¹ | kon [1]: 46000 M⁻¹ s⁻¹ | Kd [2]: 6.8 µM | koff [2]: 0.17 s⁻¹ | kon [2]: 25000 M⁻¹ s⁻¹
Substance: Rituxan (antibody)
